# Test results reported in PMC2774669 (Microbial Cell Factories, 2009).
# B1: HET-s prion forming domain (PFD), HET-s(218-289) (domain or fragment, Podospora anserina, UniProt Q03689 218-289, looked up)
# chain: KIDAIVGRNSAKDIRTEERARVQLGNVVTAAALHGGIRISDQTTNSVETVVGKGESRVLIGNEYGGKGFWDN
# notes: also called HET-s PFD
# Biological target: the molecule itself
# Assay: aggregation kinetics by turbidity
protein,measurement,value
B1,binding result,binds
